Experimental data taken from patent US20030092632A1, “Sulfated CCR5 peptides for HIV-1 infection” (priority 2001, published 2003).

Columns and labels:
CCR5+ cells = details: pre-treatment of target cells; Farzan et al. 1999; cited from earlier work
[1] = molecular target: envelope glycoproteins from HIV-1 strain JR-FL on NLluc+env- pseudotyped particles (HIV-1 JR-FL); assay: cell-based or functional assay
CCR5 = assay: flow cytometry on L1.2-CCR5+ cells, no peptide (defined as 100%), PE-streptavidin
HIV-1 = details: by associating with CD4 or gp120; literature; cited from earlier work

For `[Na+].[O-][Cl+2]([O-])[O-]` [sodium chlorate], the “Binding of a gp120/CD4 complex to CCR5+ cells” value (CCR5+ cells) is given as “decreased”.

CCR5 Nt peptide S-3/10/14 showed an inhibition of viral entry, luciferase-based single round of entry assay, HeLa-CD4+CCR5+ and U87MG-CD4+CCR5+ cells, peptide 100 µM [1] of 50%.

For CCR5 Nt peptide S-10/14, the inhibition of viral entry, luciferase-based single round of entry assay, HeLa-CD4+CCR5+ and U87MG-CD4+CCR5+ cells, peptide 100 µM [1] was 50%.

In the case of “biotinylated gp120JR-FL/CD4-IgG2 complex”, the m.f.i. (CCR5) is reported as 40 m.f.i.

In the case of dextran sulfate, the “Inhibition of HIV-1 entry” value (HIV-1) is listed as “can inhibit HIV-1 entry”.
